In the supplement of paper PMC10567573:

B1: PI4K2A (parent)
chain: FVKDPQGRIIAVFKPKNEEPYGHL

Variants of: B1
Experiment: protein stability index of a GFP-peptide fusion (GPS, HEK-293T) (PSI 1-6); higher = more stable
Conditions: c terminus: a fixed tail appended
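Also: lentivirally expressed fusions sorted by FACS into six bins by GFP to DsRed ratio, PSI derived from sequencing read proportions per bin multiplied by bin number.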

Protein stability index of substitutions, site by site:
K16: R 1.77; Q 2.23; W 2.23; Y 2.44; N 1.68; F 2.44; I 2.31; C 1.63; E 2.3; L 1.66; D 2.22; M 1.98; G 1.46; P 1.7; T 1.42; A 1.91; H 1.97; V 2.79; S 1.48
P15: I 2.13; Y 2.4; K 2.45; C 1.66; A 2.18; T 1.27; D 1.9; E 2.37; W 1.08; L 2.26; R 2.84; V 1.92; Q 2.07; M 2.1; H 1.58; G 2.5; S 1.96; N 2.26; F 1.77
V12: W 1.45; P 2.46; K 1.38; F 2.84; L 2.07; D 1.56; R 1.96; Y 1.93; H 2.9; I 1.85; S 2.72; T 2.54; C 2.04; G 2.44; M 2; Q 2.5; E 1.74; A 3.17
N17: D 1.84; A 2.52; E 2.33; C 2.31
I10: T 2.09; Q 1.74; F 2.79; A 2.15; P 2.56; R 2.85; W 2.88; M 2.51; N 2.35; V 1.88; S 1.97; D 1.97; G 2.09; Y 2.28; C 2.23; H 2.33; L 2.99
A11: Q 3.56; M 2.01; H 1.41; W 2.88; Y 1.32; C 1.27; P 3.18; R 3.16; E 2.07; I 1.37; L 1.61; D 2.94; V 1.63; G 2.72; F 2.49; K 2.58
R8: G 2.47; C 2.37; I 2.72; W 1.14; H 1.93; K 1.61; Q 1.92; Y 1.6; M 2.87; F 2.27; L 1.81; S 3.87; E 1.98; T 3.95; N 1.31; V 1.72; A 2.51
F13: E 2.05; K 1.58; T 1.94; G 1.39; R 1.93; I 2.5; W 2.13; Y 2.18; V 1.92; L 1.96; D 1.43; M 1.28; C 2.48; A 1.55; H 2.24; Q 2.13; S 1.38; N 1.99; P 2.3
G7: V 1.73; R 2.08; Q 2.07; W 3.45; T 1.45
I9: Q 1.67; S 2.61; D 3.44; V 2.56; T 2.34; E 2.17; N 4.29; Y 1.9; R 1.59; W 2.5; L 2.06; F 2.01; C 1.85; K 2.63
K14: Y 2.23; H 2.03; T 2.17; M 3.22; G 2.46; S 3.13; R 1.18; C 2.56; W 1.78; Q 2.2; D 2.49; N 1.13; E 2.09; A 2.09; V 1.47; F 2.67; I 1.97; P 2.07; L 2.08
